Assays:
[1] = biological target: recombinant HIV-1 gp120 ZM109 (HIV-1 strain ZM109); assay: BLI; Octet Red96; recombinant gp120 coupled to AR2G biosensors, dipped into titrated SLBR-N; PBS with 0.1% BSA and 0.02% Tween 20; 1:1 global fit
[2] = biological target: recombinant HIV-1 gp120 ZM109 (HIV-1 strain ZM109); assay: BLI; Octet Red96; anti-Env mAb 2219 (5 μg/mL) on AHC biosensors, then recombinant gp120 ZM109 (5 μg/mL), dipped into titrated FimH; PBS with 0.1% BSA and 0.02% Tween 20; 1:1 global fit

Row | Substance | Kd [1] [nM] | Kd [2] [nM]
1 | Streptococcal Siglec-like lectin SLBR-N, GST-tagged (domain or fragment) | 40.3 | 
2 | recombinant FimH protein (lectin domain only) (from UniProt P08191 22-179) (domain or fragment) |  | 360

From PMC9949255
